Measured values published in patent US20180044404A1.

Molecular target: CD200 on FBL cells transduced with CD200 (CD200+ FBL)
Test: cell-based or functional assay

In the case of “CD200R-9aas-CD28Cys (murine construct V) (from UniProt Q9ES57 26-229; P31041 142-150; P31041 151-218)”, the accumulation of transduced T cells over multiple stimulations with irradiated CD200+ FBL is reported as 3 fold and the lysis of CD200+ FBL cells (CFSE-based cytotoxicity assay) is reported as > 40%.
